The source of these data is paper PMC5342555, “ATAD2 is an epigenetic reader of newly synthesized histone marks during DNA replication” (Oncotarget, 2016).

This experiment concerns the target H4K12ac-TAMRA peptide. Description: fluorescence polarisation. As to conditions: 8 nM H4K12ac-TAMRA peptide; value read at the highest BD mut concentration shown, est. about 500-600 nM; parent: est. 80; read off a plot. Background: In fluorescence polarisation assays a small probe gives low polarisation when free and higher when bound to something large.

Sequence of ATAD2^342-1390 WT (Q6PL18 342-1390 V1013A/Y1021A/I1074A, change not shown): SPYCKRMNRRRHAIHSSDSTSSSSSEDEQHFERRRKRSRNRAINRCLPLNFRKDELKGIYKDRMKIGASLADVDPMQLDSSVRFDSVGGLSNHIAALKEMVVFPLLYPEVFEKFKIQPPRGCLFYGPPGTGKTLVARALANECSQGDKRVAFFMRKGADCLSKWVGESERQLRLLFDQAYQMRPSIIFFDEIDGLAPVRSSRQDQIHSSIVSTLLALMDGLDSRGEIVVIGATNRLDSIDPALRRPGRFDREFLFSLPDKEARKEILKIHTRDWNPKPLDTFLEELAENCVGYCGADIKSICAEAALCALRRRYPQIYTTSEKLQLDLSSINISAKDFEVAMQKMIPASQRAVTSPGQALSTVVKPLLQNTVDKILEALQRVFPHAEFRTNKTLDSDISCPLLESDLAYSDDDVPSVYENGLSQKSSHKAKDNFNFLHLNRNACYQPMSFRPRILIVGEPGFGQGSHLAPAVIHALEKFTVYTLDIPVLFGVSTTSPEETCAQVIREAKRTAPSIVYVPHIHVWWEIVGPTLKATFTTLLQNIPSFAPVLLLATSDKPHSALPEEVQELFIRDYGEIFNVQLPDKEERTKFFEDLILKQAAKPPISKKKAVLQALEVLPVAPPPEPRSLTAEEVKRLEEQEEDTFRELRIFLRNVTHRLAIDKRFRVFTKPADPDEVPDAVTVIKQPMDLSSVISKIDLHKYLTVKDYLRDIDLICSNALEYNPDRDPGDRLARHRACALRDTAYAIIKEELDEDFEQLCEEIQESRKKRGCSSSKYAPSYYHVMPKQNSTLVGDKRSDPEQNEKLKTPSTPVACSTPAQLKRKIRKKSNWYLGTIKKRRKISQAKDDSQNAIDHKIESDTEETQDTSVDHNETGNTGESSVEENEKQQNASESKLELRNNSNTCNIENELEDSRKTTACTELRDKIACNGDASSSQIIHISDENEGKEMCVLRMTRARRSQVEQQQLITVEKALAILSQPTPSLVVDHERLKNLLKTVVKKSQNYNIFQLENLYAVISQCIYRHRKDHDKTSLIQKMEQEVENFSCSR

With “ATAD2^342-1390 WT (from UniProt Q6PL18) BD mut”, the response was 14 mP.
